Data published in US20120122783A1 (INDIANA UNIVERSITY RESEARCH AND TECHOLOGY, published 2012).
Read-outs that look alike come from different tables or passages of the source. Square brackets hold non-standard residues; d marks the D form. Ends that are not written are not given here. Abu(4-SO3H) = N[C@@H](CCS(=O)(=O)O)C(=O)O; PhLac = O=C(O)[C@@H](O)Cc1ccccc1; PLA = not defined here

B1: [PLA^5, E^9]Glucagon(aa5-29)-NH2 (peptide)
peptide: [PhLac]FTSEYSKYLDSRRAQDFVQWLMNT-NH2
modifications: N-terminus assumed
SMILES: CSCC[C@H](NC(=O)[C@H](CC(C)C)NC(=O)[C@H](Cc1c[nH]c2ccccc12)NC(=O)[C@H](CCC(N)=O)NC(=O)[C@@H](NC(=O)[C@H](Cc1ccccc1)NC(=O)[C@H](CC(=O)O)NC(=O)[C@H](CCC(N)=O)NC(=O)[C@H](C)NC(=O)[C@H](CCCNC(=N)N)NC(=O)[C@H](CCCNC(=N)N)NC(=O)[C@H](CO)NC(=O)[C@H](CC(=O)O)NC(=O)[C@H](CC(C)C)NC(=O)[C@H](Cc1ccc(O)cc1)NC(=O)[C@H](CCCCN)NC(=O)[C@H](CO)NC(=O)[C@H](Cc1ccc(O)cc1)NC(=O)[C@H](CCC(=O)O)NC(=O)[C@H](CO)NC(=O)[C@@H](NC(=O)[C@H](Cc1ccccc1)NC(=O)[C@@H](O)Cc1ccccc1)[C@@H](C)O)C(C)C)C(=O)N[C@@H](CC(N)=O)C(=O)N[C@H](C(N)=O)[C@@H](C)O
B2: [hCys^9(SO3H)]Glucagon(aa4-29)-NH2 (peptide)
peptide: GTFTS[Abu(4-SO3H)]YSKYLDSRRAQDFVQWLMNT-NH2
modifications: N-terminus assumed
SMILES: CSCC[C@H](NC(=O)[C@H](CC(C)C)NC(=O)[C@H](Cc1c[nH]c2ccccc12)NC(=O)[C@H](CCC(N)=O)NC(=O)[C@@H](NC(=O)[C@H](Cc1ccccc1)NC(=O)[C@H](CC(=O)O)NC(=O)[C@H](CCC(N)=O)NC(=O)[C@H](C)NC(=O)[C@H](CCCNC(=N)N)NC(=O)[C@H](CCCNC(=N)N)NC(=O)[C@H](CO)NC(=O)[C@H](CC(=O)O)NC(=O)[C@H](CC(C)C)NC(=O)[C@H](Cc1ccc(O)cc1)NC(=O)[C@H](CCCCN)NC(=O)[C@H](CO)NC(=O)[C@H](Cc1ccc(O)cc1)NC(=O)[C@H](CCS(=O)(=O)O)NC(=O)[C@H](CO)NC(=O)[C@@H](NC(=O)[C@H](Cc1ccccc1)NC(=O)[C@@H](NC(=O)CN)[C@@H](C)O)[C@@H](C)O)C(C)C)C(=O)N[C@@H](CC(N)=O)C(=O)N[C@H](C(N)=O)[C@@H](C)O
B3: [hCys^9(SO3H)]Glucagon(aa5-29)-NH2 (peptide)
peptide: TFTS[Abu(4-SO3H)]YSKYLDSRRAQDFVQWLMNT-NH2
modifications: N-terminus assumed
SMILES: CSCC[C@H](NC(=O)[C@H](CC(C)C)NC(=O)[C@H](Cc1c[nH]c2ccccc12)NC(=O)[C@H](CCC(N)=O)NC(=O)[C@@H](NC(=O)[C@H](Cc1ccccc1)NC(=O)[C@H](CC(=O)O)NC(=O)[C@H](CCC(N)=O)NC(=O)[C@H](C)NC(=O)[C@H](CCCNC(=N)N)NC(=O)[C@H](CCCNC(=N)N)NC(=O)[C@H](CO)NC(=O)[C@H](CC(=O)O)NC(=O)[C@H](CC(C)C)NC(=O)[C@H](Cc1ccc(O)cc1)NC(=O)[C@H](CCCCN)NC(=O)[C@H](CO)NC(=O)[C@H](Cc1ccc(O)cc1)NC(=O)[C@H](CCS(=O)(=O)O)NC(=O)[C@H](CO)NC(=O)[C@@H](NC(=O)[C@H](Cc1ccccc1)NC(=O)[C@@H](N)[C@@H](C)O)[C@@H](C)O)C(C)C)C(=O)N[C@@H](CC(N)=O)C(=O)N[C@H](C(N)=O)[C@@H](C)O

Assays:
Assay in all cases: cell-based or functional assay
human glucagon receptor [1] = target: T1, human glucagon receptor (human, UniProt P47871 26-477)
T1 sequence (P47871 26-477): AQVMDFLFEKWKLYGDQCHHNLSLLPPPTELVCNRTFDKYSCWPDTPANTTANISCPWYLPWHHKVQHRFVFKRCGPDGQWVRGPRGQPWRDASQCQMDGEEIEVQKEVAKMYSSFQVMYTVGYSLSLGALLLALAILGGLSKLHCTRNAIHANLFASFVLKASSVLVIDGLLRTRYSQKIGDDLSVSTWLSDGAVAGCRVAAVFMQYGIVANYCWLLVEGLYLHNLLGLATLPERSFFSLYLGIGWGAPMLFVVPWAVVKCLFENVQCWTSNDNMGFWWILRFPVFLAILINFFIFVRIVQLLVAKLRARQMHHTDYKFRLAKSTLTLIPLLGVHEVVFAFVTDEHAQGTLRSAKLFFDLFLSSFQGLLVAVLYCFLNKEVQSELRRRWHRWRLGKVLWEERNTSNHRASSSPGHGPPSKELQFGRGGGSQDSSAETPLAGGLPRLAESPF

human glucagon receptor [2] = target: T1, human glucagon receptor; remark: listed apart in the source
human glucagon receptor [3] = target: T1, human glucagon receptor; remark: listed apart in the source
human glucagon receptor [4] = target: T1, human glucagon receptor; remark: listed apart in the source

| Binder | cAMP IC50 (human glucagon receptor [3]) [nM] | also measured |
| --- | --- | --- |
| [PhLac]TS[Abu(4-SO3H)]YSKYLDSRRAQDFVQWLMNT-NH2 [[PLA6, hCys(SO3)9]Glucagon(aa6-29)-NH2] | – | IC50 (nM) (cAMP, inhibit Glucagon) 0.1 nM or 0.2 nM (human glucagon receptor [1]): 40.2 nM |
| [PLA]TSEYSKYLDSRRAQDFVQWLMNTGPSSGAPPPS-NH2 (reading uncertain) [[PLA6, E9]Glucagon(aa6-29+CEX)-NH2] | – | IC50 (nM) (cAMP, inhibit Glucagon) 0.1 nM or 0.2 nM (human glucagon receptor [1]): 24.8 nM |
| B1 | – | IC50 (nM) (cAMP, inhibit 0.8 mM Glucagon) (human glucagon receptor [2]): 328 nM |
| SQGTFTS[Abu(4-SO3H)]YSKYLDSRRAQDFVQWLMNT-NH2 [[hCys^9(SO3H)]Glucagon(aa2-29)-NH2] | 147 | – |
| B2 | 68.4 | – |
| B3 | 98.3 | – |
| FTS[Abu(4-SO3H)]YSKYLDSRRAQDFVQWLMNT-NH2 [[hCys^9(SO3H)]Glucagon(aa6-29)-NH2] | 133 | cAMP IC50 (human glucagon receptor [4]): 133 nM |
